This note sets out measurements from patent EP2325637A1.

For the test, the target named is GFP-tagged Rab11a (UniProt P62491). Description: cell-based or functional assay.
Chain of UniProt P62491 (P62491 whole entry): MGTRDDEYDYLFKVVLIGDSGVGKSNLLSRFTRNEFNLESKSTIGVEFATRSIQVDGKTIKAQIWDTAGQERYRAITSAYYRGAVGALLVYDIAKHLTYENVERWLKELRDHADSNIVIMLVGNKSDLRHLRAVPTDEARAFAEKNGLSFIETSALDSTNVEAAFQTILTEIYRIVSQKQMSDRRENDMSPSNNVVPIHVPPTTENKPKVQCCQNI

Consider “mCherry-MyoVa(1100-1853) fusion protein (from UniProt Q9Y4I1 1100-1828)”, for which the colocalisation (confocal microscopy, HeLa cells) stood at 100%.
